Experimental data from paper PMC2821155.
“And” between values parts separate entries of the source, which are not always exact repeats. Equal entries are not always repeated. Where two headings read alike, the source gives them in different places.

Columns and labels:
Test in all cases: native gel or EMSA
GluA1 = GluA1 (UniProt P19490)
[1] = target: GluA1 Lurcher mutant (A636T) (UniProt P19490)
[2] = target: GluA1 Lurcher mutant (A636T) (UniProt P19490); remark: listed apart in the source
[3] = target: GluA1ΔNTD Lurcher mutant (A636T)
HA-GluA1 = HA-GluA1 (UniProt P19490)
HA-GluA1ΔNTD = target: HA-GluA1ΔNTD
HA-GluA1ΔNTD-GFP×3 = target: HA-GluA1ΔNTD-GFP×3
[4] = target: neuronal AMPA receptor complex detected using the anti-GluA2/3 antibody (mouse (endogenous in cerebellar granule cells)) (UniProt P23819)
UniProt P23819, sequence (P23819 25-883, one chain of several): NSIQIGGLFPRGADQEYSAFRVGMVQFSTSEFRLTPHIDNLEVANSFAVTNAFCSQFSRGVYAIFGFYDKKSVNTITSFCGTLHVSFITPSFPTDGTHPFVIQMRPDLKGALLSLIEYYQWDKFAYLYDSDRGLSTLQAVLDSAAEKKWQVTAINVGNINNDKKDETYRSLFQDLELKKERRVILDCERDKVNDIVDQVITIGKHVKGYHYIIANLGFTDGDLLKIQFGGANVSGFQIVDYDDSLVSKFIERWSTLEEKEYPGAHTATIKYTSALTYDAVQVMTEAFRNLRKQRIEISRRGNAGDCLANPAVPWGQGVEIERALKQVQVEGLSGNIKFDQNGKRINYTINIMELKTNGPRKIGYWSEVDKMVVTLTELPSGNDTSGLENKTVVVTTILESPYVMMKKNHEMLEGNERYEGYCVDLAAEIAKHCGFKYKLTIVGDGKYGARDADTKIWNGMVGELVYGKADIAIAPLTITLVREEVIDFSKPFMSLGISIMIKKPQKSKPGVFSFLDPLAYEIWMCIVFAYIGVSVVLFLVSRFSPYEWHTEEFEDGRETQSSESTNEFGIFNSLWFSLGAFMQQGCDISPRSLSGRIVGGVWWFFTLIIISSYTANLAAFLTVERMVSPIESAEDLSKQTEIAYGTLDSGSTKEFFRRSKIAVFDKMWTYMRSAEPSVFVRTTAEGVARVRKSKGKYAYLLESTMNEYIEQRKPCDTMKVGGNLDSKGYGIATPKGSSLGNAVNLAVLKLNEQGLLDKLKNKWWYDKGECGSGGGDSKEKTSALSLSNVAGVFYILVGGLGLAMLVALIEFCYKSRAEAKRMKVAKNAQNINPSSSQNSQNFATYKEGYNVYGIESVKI

For “GluA1 (from UniProt P19490 19-907) (receptor)”, the stoichiometry N (subunits in the oligomer) (GluA1) was 4 and 2.

With “GluA1 Lurcher mutant (A636T) (from UniProt P19490 19-907) (receptor)” the stoichiometry N (subunits in the oligomer) [1] was 4 and the stoichiometry N (subunits in the oligomer) [2] was 2.

“GluA1ΔNTD Lurcher mutant (A636T) (domain or fragment)” gave a stoichiometry N (subunits in the oligomer) [3] of 4.

With “HA-GluA1 (from UniProt P19490 19-907) (receptor)” the stoichiometry N (subunits in the oligomer) (HA-GluA1) was 4.

HA-GluA1ΔNTD (domain or fragment) showed a stoichiometry N (subunits in the oligomer) (HA-GluA1ΔNTD) of 4.

HA-GluA1ΔNTD-GFP×3 (domain or fragment) gave a stoichiometry N (subunits in the oligomer) (HA-GluA1ΔNTD-GFP×3) of 4.

B1: stargazin (endogenous, cerebellar granule cells) (natural protein)
chain: MGLFDRGVQMLLTTVGAFAAFSLMTIAVGTDYWLYSRGVCKTKSVSENETSKKNEEVMTHSGLWRTCCLEGNFKGLCKQIDHFPEDADYEADTAEYFLRAVRASSIFPILSVILLFMGGLCIAASEFYKTRHNIILSAGIFFVSAGLSNIIGIIVYISANAGDPSKSDSKKNSYSYGWSFYFGALSFIIAEMVGVLAVHMFIDRHKQLRATARATDYLQASAITRIPSYRYRYQRRSRSSSRSTEPSHSRDASPVGVKGFNTLPSTEISMYTLSRDPLKAATTPTATYNSDRDNSFLQVHNCIQKDSKDSLHANTANRRTTPV
For B1, the stoichiometry N (stargazin per AMPA receptor tetramer) [4] was 1.
